Experimental data taken from patent publication US8106020B2, “Calcium receptor activator” (Ajinomoto Co., Inc., priority 2005, dated 2012).
Starred links: 1 amine or outer side, 2 acyl side, 3 side chain; linkers in the order of their positions; H or OH if unused. Non-standard residues stand in square brackets, D forms with d. No end group written: not given here. Cys(S-allyl) = S-allylcysteine, C=CCSC[C@H](N[*:1])C(=O)[*:2]; Cys(S-Me) = S-methylcysteine, CSC[C@H](N[*:1])C(=O)[*:2]; γGlu = O=C(O)[C@H](CCC(=O)[*:2])N[*:1]; Tau = Taurine, O=S(=O)(CCN[*:1])[*:2]; Tle = CC(C)(C)[C@H](N)C(=O)O; Orn = NCCC[C@H](N)C(=O)O; Abu = CC[C@H](N)C(=O)O

Assays:
human calcium receptor = target: T1, human calcium receptor (Homo sapiens, UniProt P41180); assay: Calcium receptor activation activity: Ca ion concentration-dependent Cl ionic current in Xenopus laevis oocyte expression system; format: cell-based; conditions: for Activity (lowest concentration for which current was detected): Ca ion concentration-dependent Cl response current, peptides added at 1000 to 0.1 μM, oocytes voltage-clamped at −70 mV
T1 construct: expressed in transfected cells; host or cells: Xenopus laevis oocytes microinjected with cRNA; gene amplified by PCR from human kidney cDNA (Clontech) and cloned in pBR322
T1 sequence (P41180 20-1078): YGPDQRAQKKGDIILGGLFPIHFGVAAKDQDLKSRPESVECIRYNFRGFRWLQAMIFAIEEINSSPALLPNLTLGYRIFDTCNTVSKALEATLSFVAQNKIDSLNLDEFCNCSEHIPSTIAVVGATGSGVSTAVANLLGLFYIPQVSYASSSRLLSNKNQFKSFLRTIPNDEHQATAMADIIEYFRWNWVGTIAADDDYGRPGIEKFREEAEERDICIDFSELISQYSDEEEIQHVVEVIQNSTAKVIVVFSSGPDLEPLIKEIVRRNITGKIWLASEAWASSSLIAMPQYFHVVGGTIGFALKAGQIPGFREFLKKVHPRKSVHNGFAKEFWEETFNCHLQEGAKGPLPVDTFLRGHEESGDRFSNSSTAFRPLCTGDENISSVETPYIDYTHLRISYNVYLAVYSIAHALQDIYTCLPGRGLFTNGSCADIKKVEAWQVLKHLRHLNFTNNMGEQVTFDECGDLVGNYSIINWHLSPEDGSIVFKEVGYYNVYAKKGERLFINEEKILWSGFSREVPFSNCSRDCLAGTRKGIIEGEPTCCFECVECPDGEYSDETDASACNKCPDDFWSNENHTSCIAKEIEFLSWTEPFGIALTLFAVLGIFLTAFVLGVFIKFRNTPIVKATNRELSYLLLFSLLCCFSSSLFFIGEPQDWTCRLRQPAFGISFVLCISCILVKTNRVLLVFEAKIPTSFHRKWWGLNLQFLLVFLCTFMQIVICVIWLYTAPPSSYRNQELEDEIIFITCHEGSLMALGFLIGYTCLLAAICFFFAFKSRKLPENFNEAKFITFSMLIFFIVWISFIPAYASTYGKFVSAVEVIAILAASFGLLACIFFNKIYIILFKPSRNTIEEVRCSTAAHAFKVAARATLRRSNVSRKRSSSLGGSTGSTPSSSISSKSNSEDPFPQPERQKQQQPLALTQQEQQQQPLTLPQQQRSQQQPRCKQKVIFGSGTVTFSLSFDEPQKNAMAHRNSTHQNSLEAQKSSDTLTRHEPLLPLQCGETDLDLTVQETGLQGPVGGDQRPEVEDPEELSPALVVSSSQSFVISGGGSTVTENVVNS
Description: To evaluate calcium receptor activation activity, a Ca ion concentration-dependent Cl ionic current measuring method using a Xenopus laevis oocyte expression system was used. If each activator is added to Xenopus laevis oocytes expressing the calcium receptor, intracellular Ca ions increase. Then, the Ca ion concentration-dependent Cl channel opens, and the intracellular current value changes as an ionic current. By measuring the change in this intracellular current value, the presence or absence of calcium receptor activation activity can be determined.
Specifically, the abdomen of Xenopus laevis was opened, and an egg batch was taken out and treated with a 1% collagenase solution at 20° C. for 2 hours to obtain individual oocytes. Into the oocytes, 50 nl of 1 μg/μl receptor cRNA or 50 nl of sterilized water per oocyte was introduced by using a micro glass capillary, and the oocytes were cultured at 18° C. for 2 or 3 days. For the culture, a solution obtained by adding 2 mM pyruvic acid, 10 U/ml of penicillin, and 10 μg/ml of streptomycin to the solution in Example 2 was used. After the culture, a test solution was added to the oocytes containing either the cRNA or sterilized water. Electrophysiological measurement was performed by using an amplifier, Geneclamp500 (Axon), and recording software, AxoScope 9.0 (Axon). The oocytes were voltage-clamped at −70 mV by the double electrode voltage clamp method, and the intracellular current was measured via the Ca ion concentration-dependent Cl ion channel. The maximum value of the intracellular current was considered as the response current value.
Calcium receptor activation activity of L-amino acids was evaluated by using the method described in Example 6. That is, oocytes containing either cRNA of the calcium receptor or sterilized water were prepared, and voltage-clamped at −70 mV by the double electrode voltage clamp method. To the voltage-clamped oocytes, alanine (10 mM), arginine (10 mM), asparagine (10 mM), aspartic acid (10 mM), cysteine (10 mM), glutamine (10 mM), glutamic acid (10 mM), glycine (10 mM), histidine (10 mM), isoleucine (10 mM), leucine (10 mM), lysine (10 mM), methionine (10 mM), phenylalanine (10 mM), proline (10 mM), serine (10 mM), threonine (10 mM), tryptophan (10 mM), tyrosine (10 mM), valine (10 mM), ornithine (10 mM), taurine (10 mM), or hydroxyproline (10 mM) was added, and Ca ion concentration-dependent Cl response current was measured. […] As for the aforementioned amino acids, the activation activity was reported in Proc. Natl. Acad. Sci. USA, 2000 Apr. 25, 97(9):4814-9.
Calcium receptor activation activity of D-cysteine was evaluated by using the method described in Example 6. That is, oocytes containing either cRNA of the calcium receptor or sterilized water were prepared, and voltage-clamped at −70 mV by the double electrode voltage clamp method. To the voltage-clamped oocytes, D-cysteine (10 mM), L-cysteine (10 mM), D-tryptophan (10 mM), or L-tryptophan (10 mM) was added, and Ca ion concentration-dependent Cl response current was measured.
Calcium receptor activation activity of peptides was evaluated by using the method described in Example 6. That is, oocytes containing either cRNA of the calcium receptor or sterilized water were prepared, and voltage-clamped at −70 mV by the double electrode voltage clamp method.
Calcium receptor activation activity of peptides was evaluated in the same manner as that of Example 10. Each of the peptides shown in Table 2 was added to voltage-clamped oocytes at 1000 μM, 300 μM, 100 μM, 30 μM, 10 μM, 3 μM, 1 μM, 0.3 μM, and 0.1 μM, and Ca ion concentration-dependent Cl response current was measured.

[1] = system: Parathyroid hormone (PTH); assay: Pharmacological evaluation in rats: serum PTH after intravenous injection; format: in vivo, rat; conditions: male Sprague-Dawley rats, 100 mg/ml in saline, 0.1 ml/100 g body weight, tail vein
Text: The pharmacological effects of the peptides were confirmed by animal study. Parathyroid hormone (PTH) is one of the major proteins which relate to calcium homeostasis. Increase in PTH is directly responsible for hyperparathyroidism and hypoparathyroidism. It is known that PTH is secreted from the parathyroid gland, and its secretion is inhibited when the calcium receptor is activated. Male, 10 weeks old, Sprague-Dawley strain rats were used. “Rat Intact PTH ELISA KIT” (Immutopics) was used for measuring PTH according to the manufacturer's recommended protocol. 100 mg/ml of γ-Glu-Val-Gly was dissolved in physiological saline, and 0.1 ml/100 g body weight for each was injected through the tail vein. Blood was collected from the vein under the right clavicle, and blood serum was obtained by centrifugation. Each group consists of 3 rats, and PTH variation is shown below as average value±standard error. The result for the peptide-administered group was: 148±72.5 pg/ml before the administration and 9.44±2.94 pg/ml 15 minutes after the administration; meanwhile, the result for the control group (physiological saline administered group) was: 89.4±49.5 pg/ml before the administration and 41.1±11.6 pg/ml 15 minutes after the administration. As a result, PTH levels decreased as a result of the administration of the peptides.

| Compound | Activity (lowest concentration for which current was detected) (human calcium receptor) [µM] | further results |
| --- | --- | --- |
| N[C@H](CS)C(=O)O [D-cysteine] |  | calcium receptor activation activity (Cl response current) (human calcium receptor; D-amino acid 10 mM, FIG. 3): definitive calcium receptor activation activity |
| N[C@@H](CS)C(=O)O [cysteine, reference compound] |  | calcium receptor activation activity (Cl response current) (human calcium receptor; L-amino acid 10 mM, FIG. 2): definite calcium receptor activation activity |
| N[C@@H](Cc1c[nH]cn1)C(=O)O [histidine, reference compound] |  | calcium receptor activation activity (Cl response current) (human calcium receptor; L-amino acid 10 mM, FIG. 2): definite calcium receptor activation activity |
| N[C@@H](Cc1ccccc1)C(=O)O [phenylalanine, reference compound] |  | calcium receptor activation activity (Cl response current) (human calcium receptor; L-amino acid 10 mM, FIG. 2): definite calcium receptor activation activity |
| N[C@@H](Cc1c[nH]c2ccccc12)C(=O)O [tryptophan, reference compound] |  | calcium receptor activation activity (Cl response current) (human calcium receptor; L-amino acid 10 mM, FIG. 2): definite calcium receptor activation activity |
| N[C@@H](Cc1ccc(O)cc1)C(=O)O [tyrosine, reference compound] |  | calcium receptor activation activity (Cl response current) (human calcium receptor; L-amino acid 10 mM, FIG. 2): definite calcium receptor activation activity |
| N[C@@H](CCC(=O)N[C@@H](CSN=O)C(=O)NCC(=O)O)C(=O)O [γ-Glu-Cys(SNO)-Gly] |  | calcium receptor activation activity (Cl response current) (human calcium receptor; peptide 50 μM, FIG. 4): definitive calcium receptor activation activity |
| N[C@@H](CCC(=O)N[C@@H](CS)C(=O)NCC(=O)O)C(=O)O [γ-Glu-Cys-Gly] |  | calcium receptor activation activity (Cl response current) (human calcium receptor; peptide 50 μM, FIG. 4): definitive calcium receptor activation activity |
| γ-Glu-Abu-Gly ([γGlu]-[Abu]-Gly) | 3 |  |
| γ-Glu-Cys(S-Me)-Gly ([γGlu]-[Cys(S-Me)]-Gly) | 3 |  |
| γ-Glu-Cys(S-allyl)-Gly ([γGlu]-[Cys(S-allyl)]-Gly) | 100 |  |
| γ-Glu-Gly-Gly ([γGlu]-Gly-Gly) | 30 |  |
| γ-Glu-Orn ([γGlu]-[Orn]) |  | calcium receptor activation activity (Cl response current) (human calcium receptor; peptide 500 μM, FIG. 4): definitive calcium receptor activation activity |
| γ-Glu-Ser-Gly ([γGlu]-Ser-Gly) | 30 |  |
| γ-Glu-Tau ([γGlu]-[Tau]) | 300 |  |
| γ-Glu-Val-Arg ([γGlu]-Val-Arg) | 1000 |  |
| γ-Glu-Val-Asn ([γGlu]-Val-Asn) | 30 |  |

| Compound | Activity (lowest concentration for which current was detected) (human calcium receptor) [µM] | further results |
| --- | --- | --- |
| γ-Glu-Val-Asp | 1000 |  |
| γ-Glu-Val-Cys ([γGlu]-Val-Cys) | 10 |  |
| γ-Glu-Val-Gln ([γGlu]-Val-Gln) | 10 |  |
| γ-Glu-Val-Glu ([γGlu]-Val-Glu) | 1000 |  |
| γ-Glu-Val-Gly ([γGlu]-Val-Gly) | 0.1 | PTH in blood serum, average value±standard error ([1]; 15 minutes after the administration): 9.44 ± 2.94 pg/mL; PTH in blood serum, average value±standard error ([1]; before the administration): 148 ± 72.5 pg/mL |
| γ-Glu-Val-His ([γGlu]-Val-His) | 100 |  |
| γ-Glu-Val-Lys ([γGlu]-Val-Lys) | 1000 |  |
| γ-Glu-Val-Met ([γGlu]-Val-Met) | 1000 |  |
| γ-Glu-Val-Orn ([γGlu]-Val-[Orn]) | 100 |  |
| γ-Glu-Val-Phe ([γGlu]-Val-Phe) | 30 |  |
| γ-Glu-Val-Pro ([γGlu]-Val-Pro) | 30 |  |
| γ-Glu-Val-Ser ([γGlu]-Val-Ser) | 30 |  |
| γ-Glu-Val-Thr ([γGlu]-Val-Thr) | 1000 |  |
| γ-Glu-Val-Val ([γGlu]-Val-Val) | 1000 |  |
| γ-Glu-t-Leu ([γGlu]-[Tle]) | 100 |  |
| γ-Glu-γ-Glu-Val ([γGlu]-[γGlu]-Val) | 1000 |  |
